# Literature values as cited in PMC12583094, “A novel antioxidant peptide from black soybean [Glycine max (L.) Merr.] with verified MPO interaction and multi-scale antioxidant activity” (Frontiers in Nutrition, 2025).
# pKd: −log10 of the molar value.
# Molecular target: MPO (Homo sapiens) (UniProt P05164)
# Experiment: SPR
# MPO (Homo sapiens), sequence (P05164 165-273, chain 1 of 2): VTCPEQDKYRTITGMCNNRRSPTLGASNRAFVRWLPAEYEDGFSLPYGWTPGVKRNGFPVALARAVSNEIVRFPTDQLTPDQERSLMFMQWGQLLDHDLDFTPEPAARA
# MPO (Homo sapiens), sequence (P05164 279-745, chain 2 of 2): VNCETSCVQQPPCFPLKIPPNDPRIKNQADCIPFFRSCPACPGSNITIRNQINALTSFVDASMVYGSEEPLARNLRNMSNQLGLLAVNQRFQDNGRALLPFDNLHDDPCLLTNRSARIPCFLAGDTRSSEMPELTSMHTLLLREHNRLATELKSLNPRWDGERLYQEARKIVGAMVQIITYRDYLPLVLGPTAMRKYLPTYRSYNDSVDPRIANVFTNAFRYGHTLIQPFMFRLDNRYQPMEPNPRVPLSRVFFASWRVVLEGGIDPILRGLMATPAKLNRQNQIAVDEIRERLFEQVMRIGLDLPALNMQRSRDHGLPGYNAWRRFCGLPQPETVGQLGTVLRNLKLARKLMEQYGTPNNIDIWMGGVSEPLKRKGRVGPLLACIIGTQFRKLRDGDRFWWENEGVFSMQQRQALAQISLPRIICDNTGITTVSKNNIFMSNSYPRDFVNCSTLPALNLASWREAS
substance,measurement,value
SPIN (from UniProt A0A0H3K703),pKd,8.00
